T1: PUF4 RNA-binding domain (Saccharomyces cerevisiae, UniProt P25339 537-888)
T1 sequence: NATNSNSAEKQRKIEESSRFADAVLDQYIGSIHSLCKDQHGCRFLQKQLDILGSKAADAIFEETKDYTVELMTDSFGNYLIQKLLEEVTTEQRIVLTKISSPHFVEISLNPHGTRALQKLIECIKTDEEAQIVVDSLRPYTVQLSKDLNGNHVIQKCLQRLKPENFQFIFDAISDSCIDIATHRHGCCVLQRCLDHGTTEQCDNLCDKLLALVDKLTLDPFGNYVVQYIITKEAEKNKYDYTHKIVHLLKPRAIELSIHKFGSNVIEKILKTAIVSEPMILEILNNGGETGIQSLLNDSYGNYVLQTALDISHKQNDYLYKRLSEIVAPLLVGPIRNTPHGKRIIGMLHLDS


What follows are binders tested against T1, PUF4 RNA-binding domain (assay: Mg; RNA-MaP; 20 mM Na-HEPES pH 7.4, 30 mM KOAc, 0.75 mM MgCl2, 0.1% Tween-20, 5% glycerol, 0.1 mg/mL BSA, 2 mM DTT; 25 C; 0.0125-409.6 nM protein). Conditions: tags: N-His6-TEV cleaved; C-SNAP kept, Cy3B-labelled; label: tethered on chip by stalled RNA polymerase.

Row | Binder | Kd [nM]
1 | Ic_S2_P4E.1_K4.1_C4.1_H4.1_A4.1_[T7C]_F4.1_[T8C]_T4.1 (ssRNA) RNA: UUUGAUUAAUAUGAUAUCGUUCUUUCUUGUAUACCAUUCUUUCUCGAUAUCAUAUUAAUCUUU | 12
2 | Ib_S2_P4E.1_K4.1_C4.1_H4.1_[G2T]_[T3A]_A4.1_F4.1_T4.1 (ssRNA) RNA: UUUGAUUAAUAUGAUAUCGUUCUUUCUUUAAUAUUAUUCUUUCUCGAUAUCAUAUUAAUCUUU | 2120
3 | Ib_S2_P4E.1_K4.1_C4.1_H4.1_[G2A]_[T3C]_A4.1_F4.1_T4.1 (ssRNA) RNA: UUUGAUUAAUAUGAUAUCGUUCUUUCUUACAUAUUAUUCUUUCUCGAUAUCAUAUUAAUCUUU | 1430
4 | Ic_S2_P4E.1_K4.1_C4.1_H4.1_A4.1_[T7A]_F4.1_[A9G]_T4.1 (ssRNA) RNA: UUUGAUUAAUAUGAUAUCGUUCUUUCUUGUAUAAUGUUCUUUCUCGAUAUCAUAUUAAUCUUU | 5.97
5 | Ic_S2_P4E.1_K4.1_C4.1_H4.1_A4.1_[T7A]_F4.1_[A9T]_T4.1 (ssRNA) RNA: UUUGAUUAAUAUGAUAUCGUUCUUUCUUGUAUAAUUUUCUUUCUCGAUAUCAUAUUAAUCUUU | 4.33
6 | Ib_S2_P4E.1_K4.1_C4.1_H4.1_A4.1_[A6G]_F4.1_[A9T]_T4.1 (ssRNA) RNA: UUUGAUUAAUAUGAUAUCGUUCUUUCUUGUAUGUUUUUCUUUCUCGAUAUCAUAUUAAUCUUU | 18.3
7 | Ib_S2_P4E.1_K4.1_C4.1_H4.1_[T1A]_[G2A]_A4.1_F4.1_T4.1 (ssRNA) RNA: UUUGAUUAAUAUGAUAUCGUUCUUUCUAAUAUAUUAUUCUUUCUCGAUAUCAUAUUAAUCUUU | 616
8 | Ib_S2_P4E.1_K4.1_C4.1_H4.1_A4.1_[T7A]_F4.1_[T8C]_T4.1 (ssRNA) RNA: UUUGAUUAAUAUGAUAUCGUUCUUUCUUGUAUAACAUUCUUUCUCGAUAUCAUAUUAAUCUUU | 18.8
9 | Ib_S2_P4E.1_K4.1_C4.1_H4.1_A4.1_[T5A]_F4.1_[A9G]_T4.1 (ssRNA) RNA: UUUGAUUAAUAUGAUAUCGUUCUUUCUUGUAAAUUGUUCUUUCUCGAUAUCAUAUUAAUCUUU | 9.22
10 | Ic_S2_P4E.1_K4.1_C4.1_H4.1_A4.1_[A6C]_F4.1_[A9C]_T4.1 (ssRNA) RNA: UUUGAUUAAUAUGAUAUCGUUCUUUCUUGUAUCUUCUUCUUUCUCGAUAUCAUAUUAAUCUUU | 14.5
11 | Ib_S2_P4E.1_K4.1_C4.1_H4.1_A4.1_[T5A]_F4.1_[A9T]_T4.1 (ssRNA) RNA: UUUGAUUAAUAUGAUAUCGUUCUUUCUUGUAAAUUUUUCUUUCUCGAUAUCAUAUUAAUCUUU | 11
12 | Ib_S2_P4E.1_K4.1_C4.1_H4.1_[T1G]_[A4C]_A4.1_F4.1_T4.1 (ssRNA) RNA: UUUGAUUAAUAUGAUAUCGUUCUUUCUGGUCUAUUAUUCUUUCUCGAUAUCAUAUUAAUCUUU | 1520
13 | Ic_S2_P4E.1_K4.1_C4.1_H4.1_A4.1_[T7G]_F4.1_[A9G]_T4.1 (ssRNA) RNA: UUUGAUUAAUAUGAUAUCGUUCUUUCUUGUAUAGUGUUCUUUCUCGAUAUCAUAUUAAUCUUU | 6.7
14 | Ic_S2_P4E.1_K4.1_C4.1_H4.1_A4.1_[T7A]_F4.1_[T8A]_T4.1 (ssRNA) RNA: UUUGAUUAAUAUGAUAUCGUUCUUUCUUGUAUAAAAUUCUUUCUCGAUAUCAUAUUAAUCUUU | 16.9
15 | Ib_S2_P4E.1_K4.1_C4.1_H4.1_[T1C]_[A4G]_A4.1_F4.1_T4.1 (ssRNA) RNA: UUUGAUUAAUAUGAUAUCGUUCUUUCUCGUGUAUUAUUCUUUCUCGAUAUCAUAUUAAUCUUU | 7.32
16 | Ib_S2_P4E.1_K4.1_C4.1_H4.1_A4.1_[T7C]_F4.1_[A9T]_T4.1 (ssRNA) RNA: UUUGAUUAAUAUGAUAUCGUUCUUUCUUGUAUACUUUUCUUUCUCGAUAUCAUAUUAAUCUUU | 2.73
17 | Ic_S2_P4E.1_K4.1_C4.1_H4.1_A4.1_[T5C]_F4.1_[A9C]_T4.1 (ssRNA) RNA: UUUGAUUAAUAUGAUAUCGUUCUUUCUUGUACAUUCUUCUUUCUCGAUAUCAUAUUAAUCUUU | 2.72
18 | Ib_S2_P4E.1_K4.1_C4.1_H4.1_[T1G]_[A4G]_A4.1_F4.1_T4.1 (ssRNA) RNA: UUUGAUUAAUAUGAUAUCGUUCUUUCUGGUGUAUUAUUCUUUCUCGAUAUCAUAUUAAUCUUU | 18.6

Row | Binder | Kd [nM]
19 | Ic_S2_P4E.1_K4.1_C4.1_H4.1_A4.1_F4.1_[A9T]_T4.1 (ssRNA) RNA: UUUGAUUAAUAUGAUAUCGUUCUUUCUUGUAUAUUUUUCUUUCUCGAUAUCAUAUUAAUCUUU | 1.55
20 | Ib_S2_P4E.1_K4.1_C4.1_H4.1_[G2C]_[T3A]_A4.1_F4.1_T4.1 (ssRNA) RNA: UUUGAUUAAUAUGAUAUCGUUCUUUCUUCAAUAUUAUUCUUUCUCGAUAUCAUAUUAAUCUUU | > 2300
21 | Ib_S2_P4E.1_K4.1_C4.1_H4.1_A4.1_[A6C]_F4.1_[A9G]_T4.1 (ssRNA) RNA: UUUGAUUAAUAUGAUAUCGUUCUUUCUUGUAUCUUGUUCUUUCUCGAUAUCAUAUUAAUCUUU | 9.54
22 | Ib_S2_P4E.1_K4.1_C4.1_H4.1_A4.1_[A6T]_F4.1_[A9C]_T4.1 (ssRNA) RNA: UUUGAUUAAUAUGAUAUCGUUCUUUCUUGUAUUUUCUUCUUUCUCGAUAUCAUAUUAAUCUUU | 20.5
23 | Ib_S2_P4E.1_K4.1_C4.1_H4.1_[T1A]_[G2C]_A4.1_F4.1_T4.1 (ssRNA) RNA: UUUGAUUAAUAUGAUAUCGUUCUUUCUACUAUAUUAUUCUUUCUCGAUAUCAUAUUAAUCUUU | 174
24 | Ia_S2_P4E.1_K4.1_C4.1_H4.1_[G2C]_A4.1_F4.1_T4.1 (ssRNA) RNA: UUUGAUUAAUAUGAUAUCGUUCUUUCUUCUAUAUUAUUCUUUCUCGAUAUCAUAUUAAUCUUU | 151
25 | Ib_S2_P4E.1_K4.1_C4.1_H4.1_[T1G]_[T3C]_A4.1_F4.1_T4.1 (ssRNA) RNA: UUUGAUUAAUAUGAUAUCGUUCUUUCUGGCAUAUUAUUCUUUCUCGAUAUCAUAUUAAUCUUU | 222
26 | Ib_S2_P4E.1_K4.1_C4.1_H4.1_[T1G]_[G2T]_A4.1_F4.1_T4.1 (ssRNA) RNA: UUUGAUUAAUAUGAUAUCGUUCUUUCUGUUAUAUUAUUCUUUCUCGAUAUCAUAUUAAUCUUU | 7.76
27 | Ib_S2_P4E.1_K4.1_C4.1_H4.1_A4.1_[A6T]_F4.1_[A9T]_T4.1 (ssRNA) RNA: UUUGAUUAAUAUGAUAUCGUUCUUUCUUGUAUUUUUUUCUUUCUCGAUAUCAUAUUAAUCUUU | 9.83
28 | Ib_S2_P4E.1_K4.1_C4.1_H4.1_A4.1_[T7A]_F4.1_[A9C]_T4.1 (ssRNA) RNA: UUUGAUUAAUAUGAUAUCGUUCUUUCUUGUAUAAUCUUCUUUCUCGAUAUCAUAUUAAUCUUU | 12.3
29 | Ic_S2_P4E.1_K4.1_C4.1_H4.1_A4.1_[T7C]_F4.1_[T8A]_T4.1 (ssRNA) RNA: UUUGAUUAAUAUGAUAUCGUUCUUUCUUGUAUACAAUUCUUUCUCGAUAUCAUAUUAAUCUUU | 18
30 | Ib_S2_P4E.1_K4.1_C4.1_H4.1_A4.1_[T5A]_F4.1_[A9C]_T4.1 (ssRNA) RNA: UUUGAUUAAUAUGAUAUCGUUCUUUCUUGUAAAUUCUUCUUUCUCGAUAUCAUAUUAAUCUUU | 17.1
31 | Ic_S2_P4E.1_K4.1_C4.1_H4.1_A4.1_[T7G]_F4.1_[A9T]_T4.1 (ssRNA) RNA: UUUGAUUAAUAUGAUAUCGUUCUUUCUUGUAUAGUUUUCUUUCUCGAUAUCAUAUUAAUCUUU | 11.6
32 | Ib_S2_P4E.1_K4.1_C4.1_H4.1_A4.1_[A6G]_F4.1_[A9G]_T4.1 (ssRNA) RNA: UUUGAUUAAUAUGAUAUCGUUCUUUCUUGUAUGUUGUUCUUUCUCGAUAUCAUAUUAAUCUUU | 26.5
33 | Ib_S2_P4E.1_K4.1_C4.1_H4.1_[G2A]_[T3A]_A4.1_F4.1_T4.1 (ssRNA) RNA: UUUGAUUAAUAUGAUAUCGUUCUUUCUUAAAUAUUAUUCUUUCUCGAUAUCAUAUUAAUCUUU | > 2300
34 | Ib_S2_P4E.1_K4.1_C4.1_H4.1_A4.1_[A6C]_F4.1_[A9T]_T4.1 (ssRNA) RNA: UUUGAUUAAUAUGAUAUCGUUCUUUCUUGUAUCUUUUUCUUUCUCGAUAUCAUAUUAAUCUUU | 8.41
35 | Ia_S2_P4E.1_K4.1_C4.1_H4.1_[T1A]_A4.1_F4.1_T4.1 (ssRNA) RNA: UUUGAUUAAUAUGAUAUCGUUCUUUCUAGUAUAUUAUUCUUUCUCGAUAUCAUAUUAAUCUUU | 103

— article PMC9352680, “A comprehensive thermodynamic model for RNA binding by the Saccharomyces cerevisiae Pumilio protein PUF4”
